Reference: the RNAGym collection of RNA variant scans (doi:10.1073/pnas.2313332121)

B1: TPR t1 (parent)
chain: GACCAAUCUGCCCUCAGAGCUCGAGAACAUCUUCGGAUGCAGAGGAGGCAGGCUUCGGUGGCGCGAUAGCGCCAACGUCCUCAACCUCCAAUGCAUCCCACCACAUGAUGAUGCCUGAAGAGCCUUGGUUUUUUG

Variants of: B1
Experiment: polymerase ribozyme fitness, log enrichment relative to wild type (log ratio); higher = more active; in vitro selection for triplet polymerase activity
Method in brief: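 Mutant libraries were PCR-built and transcribed for each subunit of a heterodimeric triplet polymerase ribozyme and selected for one round in triplicate at −7 °C, frozen, before gel excision of extended constructs and streptavidin-bead capture. Input and output libraries were Illumina-sequenced, keeping genotypes with ≥10 input reads and ≥1 read per output. Fitness is a logarithmic ratio of genotype to wild-type enrichment, in base 2, using inverse-variance-weighted replicate averages.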

Variant | polymerase ribozyme fitness (log ratio)
GACCAAUCUGCCCUCAGAGCUCGAGAACAUCUUCGGAUGCAGAGGAGGCAGGCUUCGGUGGCGCGAUAGCGCCAACGUCCUCAACCUCCAAUGCAUCCCACCACAGGAUGAGGCCUGAAGAGCCUUGGUUUUUUG [U106G U112G] | -1.25
GACCAAUCUGCCCUCAGAGCUCGAGAACAUCUUCGGAUGCAGAGGAGGCAGGCUUCGGUGGCGCGAUAGCGCCAACGUCCUCAACCUCCAAUGCAUCCCACCACAGGAUGAUGCCUGAAGAGCCGUGGUUUUUUG [U106G U125G] | -3.81
GACCAAUCUGCCCUCAGAGCUCGAGAACAUCUUCGGAUGCAGAGGAGGCAGGCUUCGGUGGCGCGAUAGCGCCAACGUCCUCAACCUCCAAUGCAUCCCACCACAUAAUGAUGCCUGAACAGCCUUGGUUUUUUG [G107A G120C] | -3.25
GACCAAUCUGCCCUCAGAGCUCGAGAACAUCUUCGGAUGCAGAGGAGGCAGGCUUCGGUGGCGCGAUAGCGCCAACGUCCUCAACCUCCAAUGCAUCCCACCACAUAAUGAUGCCUGAGGAGCCUUGGUUUUUUG [G107A A119G] | -4.92
GACCAAUCUGCCCUCAGAGCUCGAGAACAUCUUCGGAUGCAGAGGAGGCAGGCUUCGGUGGCGCGAUAGCGCCAACGUCCUCAACCUCCAAUGCAUCCCACCACAUGAUUAUGCCUGAAGAGCCUUGGAUUUUUG [G110U U129A] | -2.53
GACCAAUCUGCCCUCAGAGCUCGAGAACAUCUUCGGAUGCAGAGGAGGCAGGCUUCGGUGGCGCGAUAGCGCCAACGUCCUCAACCUCCAAUGCAUCCCACCACAUUAUGAUGCCUGAUGCGCCUUGGUUUUUUG [G107U A119U A121C] | -3.29
GACCAAUCUGCCCUCAGAGCUCGAGAACAUCUUCGGAUGCAGAGGAGGCAGGCUUCGGUGGCGCGAUAGCGCCAACGUCCUCAACCUCCAAUGCAUCCCACCACAUGAGGAUGCCUGAAGAGCCUUGGAUUUUUG [U109G U129A] | -5.24
GACCAAUCUGCCCUCAGAGCUCGAGAACAUCUUCGGAUGCAGAGGAGGCAGGCUUCGGUGGCGCGAUAGCGCCAACGUCCUCAACCUCCAAUGCAUCCCACCACAUAAUGAUGCCUGAAGAGCAUUGGUUUUUUG [G107A C124A] | -2.63
GACCAAUCUGCCCUCAGAGCUCGAGAACAUCUUCGGAUGCAGAGGAGGCAGGCUUCGGUGGCGCGAUAGCGCCAACGUCCUCAACCUCCAAUGCAUCCCACCACAUGCUGAUGCCUGAAGAGCGUUGGUUUUUUG [A108C C124G] | -4.87
GACCAAUCUGCCCUCAGAGCUCGAGAACAUCUUCGGAUGCAGAGGAGGCAGGCUUCGGUGGCGCGAUAGCGCCAACGUCCUCAACCUCCAAUGCAUCCCACCACAUGAGGAUGCCUGAGGAGCCUUGGUUUUUUC [U109G A119G G135C] | -3.19
GACCAAUCUGCCCUCAGAGCUCGAGAACAUCUUCGGAUGCAGAGGAGGCAGGCUUCGGUGGCGCGAUAGCGCCAACGUCCUCAACCUCCAAUGCAUCCCACCACAUGAGAAUGCCUGAAGAGCCUUGGUUUUUUG [U109G G110A] | -3.89
GACCAAUCUGCCCUCAGAGCUCGAGAACAUCUUCGGAUGCAGAGGAGGCAGGCUUCGGUGGCGCGAUAGCGCCAACGUCCUCAACCUCCAAUGCAUCCCACCACAUCAUGAUGCCUGAACAGCCUUGGUAUUUUG [G107C G120C U130A] | -4.61
GACCAAUCUGCCCUCAGAGCUCGAGAACAUCUUCGGAUGCAGAGGAGGCAGGCUUCGGUGGCGCGAUAGCGCCAACGUCCUCAACCUCCAAUGCAUCCCACCACAUGAAAAUGCCUGAAGAGCCUUGGUUUUUUG [U109A G110A] | -4.3
GACCAAUCUGCCCUCAGAGCUCGAGAACAUCUUCGGAUGCAGAGGAGGCAGGCUUCGGUGGCGCGAUAGCGCCAACGUCCUCAACCUCCAAUGCAUCCCACCACAUGAUGCUGCCUGAAGAGGCUUGGUUUUUUG [A111C C123G] | 0.549
GACCAAUCUGCCCUCAGAGCUCGAGAACAUCUUCGGAUGCAGAGGAGGCAGGCUUCGGUGGCGCGAUAGCGCCAACGUCCUCAACCUCCAAUGCAUCCCACCACAUGAUAAUGCCUGAAGAGCCUUGGUAUUUUG [G110A U130A] | -0.862
GACCAAUCUGCCCUCAGAGCUCGAGAACAUCUUCGGAUGCAGAGGAGGCAGGCUUCGGUGGCGCGAUAGCGCCAACGUCCUCAACCUCCAAUGCAUCCCACCACAUGAUAAUGCCUGAAGAGCCUUGGUCUUUUG [G110A U130C] | -0.539
GACCAAUCUGCCCUCAGAGCUCGAGAACAUCUUCGGAUGCAGAGGAGGCAGGCUUCGGUGGCGCGAUAGCGCCAACGUCCUCAACCUCCAAUGCAUCCCACCACAUGAUAAUGCCUGAAAAGCCUUGGUUUUUUG [G110A G120A] | -1.23
GACCAAUCUGCCCUCAGAGCUCGAGAACAUCUUCGGAUGCAGAGGAGGCAGGCUUCGGUGGCGCGAUAGCGCCAACGUCCUCAACCUCCAAUGCAUCCCACCACAUGACGAUGCCUGAAGUGCCUUGGUUUUUUG [U109C A121U] | -3.68
GACCAAUCUGCCCUCAGAGCUCGAGAACAUCUUCGGAUGCAGAGGAGGCAGGCUUCGGUGGCGCGAUAGCGCCAACGUCCUCAACCUCCAAUGCAUCCCACCACAUAAUGAUGACUGAAGAGCCUUGGUUUUUUG [G107A C114A] | -4.24
GACCAAUCUGCCCUCAGAGCUCGAGAACAUCUUCGGAUGCAGAGGAGGCAGGCUUCGGUGGCGCGAUAGCGCCAACGUCCUCAACCUCCAAUGCAUCCCACCACAUAAAGAUGCCUGAGGAGCCUUGGUUUUUUG [G107A U109A A119G] | -4.55
GACCAAUCUGCCCUCAGAGCUCGAGAACAUCUUCGGAUGCAGAGGAGGCAGGCUUCGGUGGCGCGAUAGCGCCAACGUCCUCAACCUCCAAUGCAUCCCACCACAUGAUGCGUCCAGAAGAGCAUUGGUUUUUUG [A111C U112G G113U U116A C124A] | -3.18
